This is an account of results in doi:10.1101/2022.10.07.511266.

A word on the stoichiometry N: it is a count of units in the complex or per binding partner.

The test concerns the target integrin αIIbβ3 (human) (UniProt P05106). The test is described as follows: epifluorescence microscopy of co-clustering on giant unilamellar vesicles.

For eGFP-talin F2-F3 (domain or fragment), the stoichiometry N (talin:integrin) was found to be 2. The stoichiometry N (scale: talin:integrin) came out at 3.

“mCherry-kindlin-2 (from UniProt Q96AC1 1-680) (natural protein)” gave a stoichiometry N (kindlin:integrin) of 3. This substance yielded a stoichiometry N (scale: kindlin:integrin) of 4.
